Results on eleven substances are retold here after IntAct's records for PubMed 26635368.

In one assay the target is spre1_human SPRED1 (UniProt Q7Z699).
spre1_human SPRED1, sequence (Q7Z699 whole entry): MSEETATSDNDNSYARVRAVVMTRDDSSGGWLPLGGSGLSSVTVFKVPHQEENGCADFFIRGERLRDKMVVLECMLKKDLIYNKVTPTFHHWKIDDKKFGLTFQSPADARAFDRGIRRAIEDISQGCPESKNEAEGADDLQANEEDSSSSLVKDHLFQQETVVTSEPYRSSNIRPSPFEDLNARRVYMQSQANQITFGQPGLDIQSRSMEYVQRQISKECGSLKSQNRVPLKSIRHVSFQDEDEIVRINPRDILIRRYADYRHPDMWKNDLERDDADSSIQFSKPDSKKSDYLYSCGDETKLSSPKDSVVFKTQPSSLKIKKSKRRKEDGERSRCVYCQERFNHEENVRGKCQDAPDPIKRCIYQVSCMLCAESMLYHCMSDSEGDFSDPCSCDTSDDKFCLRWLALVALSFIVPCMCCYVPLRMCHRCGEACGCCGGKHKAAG
For “Neurofibromin (Homo sapiens), P21359 A1202S”, the “effect of a mutation on the interaction” value was “with no effect”. Still for that read-out and setting: under “Neurofibromin (Homo sapiens), P21359 D1217G” stands “disrupting interaction strength”; under “Neurofibromin (Homo sapiens), P21359 G1519E”, “with no effect”. Consider “Neurofibromin (Homo sapiens), P21359 L1208W”, for which the “effect of a mutation on the interaction” value is reported as “decreasing interaction strength”. Same read-out and setting: under “Neurofibromin (Homo sapiens), P21359 L1211R” stands “with no effect”. On the same count and under the same terms, under “Neurofibromin (Homo sapiens), P21359 Q1515R” stands “with no effect”; under “Neurofibromin (Homo sapiens), P21359 R1204G”, “with no effect”; under “Neurofibromin (Homo sapiens), P21359 R1204L”, “decreasing interaction strength”.

As for “Neurofibromin (Homo sapiens), P21359 R1204W”, the “effect of a mutation on the interaction” value is listed as “decreasing interaction strength”.

Another assay has the same target. This is another data set of the same source.
For the substance “Neurofibromin (Homo sapiens), P21359 D1217G”, the “effect of a mutation on the interaction” value is reported as “decreasing interaction strength”.

On to “Neurofibromin (Homo sapiens), P21359 L1511P”, for which the “effect of a mutation on the interaction” value is reported as “decreasing interaction strength”. On the same count and under the same terms, under “Neurofibromin (Homo sapiens), P21359 R1276P” stands “with no effect”.
